{"source": "patent US9333272B2", "about": "“Fibrin binding peptide conjugates for diagnostic and therapeutic applications” (Bracco Imaging SpA, priority 2006, dated 2016)", "biological_target": "T1, fibrin in tumor, Neuro 2A neuroblastoma (Mus musculus, UniProt E9PV24+Q8K0E8+Q8VCM7)", "T1 construct": "from tissue; host or cells: tumor stroma of living mice (BALB-neuT mammary tumor, TRAMP prostate tumor, Neuro-2a neuroblastoma in A/J mice)", "T1 sequence (E9PV24 20-557 isoform E9PV24-2 limits assumed)": "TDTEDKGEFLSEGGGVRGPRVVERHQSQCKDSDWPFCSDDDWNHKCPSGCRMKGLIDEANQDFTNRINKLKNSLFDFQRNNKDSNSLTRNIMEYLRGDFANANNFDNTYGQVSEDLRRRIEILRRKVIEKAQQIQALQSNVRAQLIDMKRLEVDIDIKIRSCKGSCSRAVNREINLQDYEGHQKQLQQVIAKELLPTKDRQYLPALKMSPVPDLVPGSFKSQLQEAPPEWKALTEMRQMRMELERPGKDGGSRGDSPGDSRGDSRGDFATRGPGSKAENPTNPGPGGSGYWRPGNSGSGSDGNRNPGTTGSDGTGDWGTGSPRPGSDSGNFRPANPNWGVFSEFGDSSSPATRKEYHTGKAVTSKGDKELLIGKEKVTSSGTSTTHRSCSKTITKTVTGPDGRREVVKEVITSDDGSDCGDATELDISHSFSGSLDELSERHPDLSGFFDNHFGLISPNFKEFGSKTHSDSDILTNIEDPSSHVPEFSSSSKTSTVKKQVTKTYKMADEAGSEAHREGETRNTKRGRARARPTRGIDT", "T1 sequence (Q8K0E8 35-481 limits assumed)": "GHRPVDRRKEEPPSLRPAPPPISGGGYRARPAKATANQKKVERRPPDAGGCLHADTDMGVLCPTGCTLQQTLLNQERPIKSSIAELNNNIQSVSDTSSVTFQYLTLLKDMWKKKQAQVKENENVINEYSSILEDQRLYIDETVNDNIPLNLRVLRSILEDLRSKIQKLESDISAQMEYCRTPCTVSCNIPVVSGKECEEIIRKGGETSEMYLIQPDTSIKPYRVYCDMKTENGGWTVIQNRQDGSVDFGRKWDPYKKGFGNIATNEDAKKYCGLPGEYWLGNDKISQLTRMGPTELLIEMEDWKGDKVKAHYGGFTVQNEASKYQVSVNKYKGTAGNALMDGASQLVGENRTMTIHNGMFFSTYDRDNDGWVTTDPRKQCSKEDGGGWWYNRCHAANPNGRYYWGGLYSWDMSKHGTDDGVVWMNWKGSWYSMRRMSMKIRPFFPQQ", "T1 sequence (Q8VCM7 26-436)": "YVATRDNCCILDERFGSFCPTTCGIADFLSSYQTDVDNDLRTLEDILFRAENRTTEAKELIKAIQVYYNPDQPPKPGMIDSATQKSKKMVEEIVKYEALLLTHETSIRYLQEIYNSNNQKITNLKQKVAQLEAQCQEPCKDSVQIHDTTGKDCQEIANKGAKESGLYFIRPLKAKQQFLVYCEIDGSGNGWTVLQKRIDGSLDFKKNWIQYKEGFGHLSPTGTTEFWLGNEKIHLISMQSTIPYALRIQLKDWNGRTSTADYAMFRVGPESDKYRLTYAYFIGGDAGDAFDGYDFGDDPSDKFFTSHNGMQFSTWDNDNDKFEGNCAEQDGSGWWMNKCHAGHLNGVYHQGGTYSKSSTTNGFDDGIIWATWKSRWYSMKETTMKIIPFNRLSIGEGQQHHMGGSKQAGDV", "assay": "In vivo MRI, neuroblastoma tumor induced by Neuro 2A cells, Example 18", "details": "25 μmol/kg of complex, 4 h post injection, 2T", "procedure": "This test has been performed on mice with neuroblastoma tumor induced by inoculation of 2.10^6 Neuro 2A cells.\nTwo groups of 5 mice each inoculated were formed to test the Reference compound 2 and the Chelate complex 1.\nAt day-10 post tumor cells inoculation, mice with similar tumor size (5-10 mm in diameter) were selected for the in vivo MRI tests. Before and post contrast administration, T1 and T2 high resolution 2D spin-echo and 3D gradient echo images were acquired. MRI was performed at 4 h and 24 h post injection. The maximum signal intensity was measured in the entire tumor area and in each image post contrast covering the whole tumor and compared to the pre-contrast images. At the end of MRI exams, all animals were sacrificed and the tumor, blood, liver, kidneys and femoral bone were removed and prepared for Gd assay by ICP. […]\nThe signal intensity was measured within a region of interest (ROI) including the entire tumor, drawn by an operator on each MR image using a dedicated software (MR Research Systems Ltd, Surrey UK). Signal intensity enhancement (Enh %) was determined as: Enh %=100*(SIx(t)−SI0)/SI0 where SI0 and SIx(t) were the signal intensity of tumor pre and post injection of the contrast agent (test articles or reference), respectively.", "note": "Ends that are not written are not given here.", "data": [{"substance": "Chelate Complex 1: Gd chelate (four DTPA-Glu) conjugated via linker to fibrin-binding peptide SEQ ID NO:001 (WQPCPAESWTFCWDPGGGK; cysteine pairing not given here; also: Gd chelate (four DTPA-Glu) conjugated via linker, site not given here, metal complex: Gd)", "values": [{"measurement": "Tumor signal enhancement (T1 weighted MRI), in words", "result": "high signal enhancement inside tumor"}, {"measurement": "Tumor signal enhancement (T1 weighted MRI), in words", "setting": "listed as chelate complex 1", "result": "significant tumor signal enhancement"}]}]}
